Test results reported in the DeepSol protein solubility set.

Assay: soluble on expression in E. coli; label from the status in PepcDB or PDB records

Row | Sequence | soluble on expression in E. coli
1 | MGSDKIHHHHHHMQFNKPLRQGVLQKRYKRFLADIDFGDNETTTTHCPNTGAMTGCAEPGFTAWCSVSDNPKRKYSLTWELAQNNNGEMIVVNTQHANRMAGELLQTNLVPELSQWQELKPEQRYGKEKSRIDWWGVDQHNRECFIEVKSVTLADASQGYFPDAVSQRAHKHLNELMQVVADGHRAVQLYMVMHDGIERVSPAAHIDSQYAELCRKAASVGVEFYAVKCRASAKEIKLERPVPVSL | not soluble
2 | MELKTSDVAARLGVSPKTIQRWVRKYDIPLRRNEAGHYLFDEKTVALLERVKFEQGAAMEAPPTPKRPPTPLRNNIPIDALHESIEPEIARVSSRLDQLERQLEQKADDVVSIQLLHHRQEMEEIVARLTALEQLVARLEQQLNTRPPAPHEPPEETKQKRRGLGRVMGLFA | not soluble
3 | MIQFKDSYKHYGANGREVTALQPLNLEIRAGEVFGIIGHSGAGKSTMLRMINRLEEPSGGHLLINGQDITVLDRMGLRALRRQIGMIFQHFNLLSSYTVAGNVAFPLKLTGASDAKINARVAELLAWVGLEAHANTYPAQLSGGQKQRVGIARALATRPQILLCDEVTSALDPQTTSTVLQLLARINRELGLTIVLITHEMDVIRRICDRVAVLDTGRLVEIGLVTDVFLHPQHPTTRSFVMETEHIDTSALDQDFALVKGRIVRLTFIGTDTYLPLLGRVARETGVDYNILSGRIDRIKETPYGQLTVALSGGDPVAAQAAFAAAGIHIEELRA | not soluble
4 | MAFFRNCDPDDPLCIDECRLQKFEYLRWVRLLPSGDEDVLSYCASIGARLGKSEGYVSRRIDAFSMLLELSKVHELQLKMWHLDITRLMVIAQALSGVEKEVIEEIDAPLARFLTPKRDNQKMPGPKVIKKFIVDLLVRVEDAVEEVDSPQELAIDFYDAGNGKTGINAVVDNATASIFRDQLMRLAKAYECDDSSALLLMATQEGKSLTINLYKGDNFGELMTADGYRLSRKSVDLVFPNASRRSLEGVENVETRGYSFTPSMRAYIQARDGVCRFPGCSIRAVNCDIDHVEEYGLGGKTTARNAQCLCRRHHNLKTSKAVDCEISGDASVSWILEDGTKVVTLPEGIFSADRLFGQTFAQRVVDRIRRRKLRMRKNSCDDVPF | not soluble
5 | MAPWIGGKRNLARRICAILDRSPCLTYAEPFVGMAGIFLRRSSRPRAEVINDRGRDVANLFRILQRHYPQFLDTLRFQLTTRAEFERLGATDPDTLTDLERAARFLYLQRTAFGGKVSGRNFGVSSHRPGRFNLTTLEPMLEDLHSRLAGVIVECLDWADFLARYDRPETLFYLDPPYWGSETDYGRGLFQREDFGLMAERLAKLQGRFLLSINDVPQIRAIFGRFRITEVTTTYSISGSAKGNGTARPELLVSNWDIGEEG | not soluble
6 | MSLSRLVVVSNRIAPPDEHAASAGGLAVGILGALKAAGGLWFGWSGETGNEDQPLKKVKKGNITWASFNLSEQDLDEYYNQFSNAVLWPAFHYRLDLVQFQRPAWDGYLRVNALLADKLLPLLQDDDIIWIHDYHLLPFAHELRKRGVNNRIGFFLHIPFPTPEIFNALPTYDTLLEQLCDYDLLGFQTENDRLAFLDCLSNLTRVTTRSAKSHTAWGKAFRTEVYPIGIEPKEIAKQAAGPLPPKLAQLKAELKNVQNIFSVERLDYSKGLPERFLAYEALLEKYPQHHGKIRYTQIAPTSRGDVQAYQDIRHQLENEAGRINGKYGQLGWTPLYYLNQHFDRKLLMKIFRYSDVGLVTPLRDGMNLVAKEYVAAQDPANPGVLVLSQFAGAANELTSALIVNPYDRDEVAAALDRALTMSLAERISRHAEMLDVIVKNDINHWQECFISDLKQIVPRSAESQQRDKVATFPKLAEGGSHHHHHH | soluble
7 | MVVVPHIDRQFLKDVEAVFTARARVNLPVPNPGLGTWVDRTTDTWFRFNHQLSVAIADILQRNFHYAWLTYQMILVVFKARWFFSSRHTLTVWTQFNLVARTLYRDDNSLE | not soluble
8 | MGSDKIHHHHHHMNDLNVLVLEDEPFQRLVAVTALKKVVPGSILEAADGKEAVAILESCGHVDIAICDLQMSGMDGLAFLRHASLSGKVHSVILSSEVDPILRQATISMIECLGLNFLGDLGKPFSLERITALLTRYNARRQDLPRQIEVAELPSVADVVRGLDNGEFEAYYQPKVALDGGGLIGAEVLARWNHPHLGVLPPSHFLYVMETYNLVDKLFWQLFSQGLATRRKLAQLGQPINLAFNVHPSQLGSRALAENISALLTEFHLPPSSVMFEITETGLISAPASSLENLVRLRIMGCGLAMDDFGAGYSSLDRLCEFPFSQIKLDRTFVQKMKTQPRSCAVISSVVALAQALGISLVVEGVESDEQRVRLIELGCSIAQGYLFARPMPEQHFLDYCSGS | not soluble
9 | MPLYRTYIEGEFLLGIWKSDETTEQLLASLEHKDWYREKLAVLSEKRKHEWLSVRVLLKALCGEEKEIAYYSSGRPYLKDGSRYISISHTRGYVAVALHSSCEVGMDIEQYGTRVRKVASRFIRSDEEPAMMEGDEVYALLLHWSAKEALFKLMGVEEVDFIRHLRIFPFSLSEEGEFEACEYRTGRQERYRVRYVTHPDFVLTWIIK | not soluble
10 | MGEIIKESDKRVALKLPANVTEIDDRAFLGCTRLESIDLSACTSLTAIKLAAFKGCTSLKAVQLPQSLTTIGHFAFEGCTALKEVELPQNLTVIGTDAFKGCSIETLVIHCDIKGTIIENFTKKDEVNKNVKKLTLGKGVTTIGNYAFYIIGYSKLAAVDFSACTALTEIGENAFAYSKLTNVNLSACIKLTEIGKSAFSNCTDLTNVDLSGCTALTTIGEQAFNSCYEATVKLPTGITAIGNEAFGENDEDFLCKNVLIPRSHAATIKPLVTASDYPEDRIREY | not soluble
11 | MNIFAILNHMGVFFKEEPVRQLHAALEKAGYEVVYPVDDKDLIKMIEMNPRICGVLFDWDKYSLELCERISQINEKLPVHAFANEQSTLDISLTDLRLNVSFFEYALGMADDI | not soluble
12 | MAPQSNNSTTFVSKTQHYLKVKKPLLERQRRARMNKCLDTLKTLVAEFQGDDAILRMDKAEMLEAALVFMRKQVVKQQAPVSPLPMDSFKNGYMNAVSEISRVMACTPAMSVDVGKTVMTHLGVEFQRMLQADQVQTSVTTSTPRPLSPASSGYHSDNEDSQSAASPKPVEETMWRPWLEHHHHHH | not soluble
13 | MGSDKIHHHHHHMEDREQLYTLLAQKDWDAIGKIIYKNKKAKKQDPFLTQVTTFFEAEFFEFTRPLPPAERAKQFEHTNLIIELGQHGFSQAFVDNFVDERLKLMQETQHSALLNYAQTYQHRPLAQRIIASFINTKPEAVAASLRENMTIRATDVQPGKAKTIRLFKSKQEEHFYEAVRRVFPTYHPYPNVALSCVLDYQAIKDSLSEQAKSYFFKAIIDSVVFDVGSGYEPKYFIELDSNFHDAAQAQANDKMKDDIFRAANTKLIRIRPLNSKASSIEEFEKLVREVMRQL | not soluble
14 | MGSDKIHHHHHHMQAKLTKKEFIEWLKTSEGKQFNVDLWYGFQCFDYANAGWKVLFGLLLKGLGAKDIPFANNFDGLATVYQNTPDFLAQPGDMVVFGSNYGAGYGHVAWVIEATLDYIIVYEQNWLGGGWTDRIEQPGWGWEKVTRRQHAYDFPMWFIRPNFKSETAPRSIQSPTQASKKETAKPQPKAVELKIIKDVVKGYDLPKRGGNPKGIVIHNDAGSKGATAEAYRNGLVNAPLSRLEAGIAHSYVSGNTVWQALDESQVGWHTANQLGNKYYYGIEVCQSMGADNATFLKNEQATFQECARLLKKWGLPANRNTIRLHNEFTSTSCPHRSSVLHTGFDPVTRGLLPEDKQLQLKDYFIKQIRVYMDGKIPVATVSNESSASSNTVKPVASAWKRNKYGTYYMEESARFTNGNQPITVRKIGPFLSCPVAYQFQPGGYCDYTEVMLQDGHVWVGYTWEGQRYYLPIRTWNGSAPPNQILGDLWGEIS | not soluble
15 | SLSTVELSGTVVKQGYLAKQGHKRKNWKVRRFVLRKDPAFLHYYDPSKEENRPVGGFSLRGSLVSALEDNGVPTGVKGNVQGNLFKVITKDDTHYYIQASSKAERAEWIEAIKKLT | soluble
16 | MGHHHHHHSHMTKIIPVASGKGGVGKTSFVANVGYKLSSLGKTVILVDLDLGGSNLHTCLGVKNKGVGIGSFINKKSKSFSDLVCKTSYDKLYLIPGDALYTGTANLPFSIKKKIIESIQKDLIADFIFLDLGSGTSYNTIDFYLASYSGVIVTIPETPSILNAYSFLKNALYRLLYLGFP | not soluble
17 | MGSDKIHHHHHHMSQFIDILRQHLADFQWRYAHQITPEIQDAIHAMLSCRCNTARVSCCEQQREFPLSCGHRSCPQCQHGTTCDWLSKQQAKLLPVNYFMVTFTLPFELRAIAKSQPDLLYHALFTVAASVLKDFAVRSPKLSGDIGFTGVLHTYSRRRDYHPHLHCIIPAGSYHPGKRQWRKCQTHYLFNAFNLAKVWRARLLTYLSDRLQLKLPH | not soluble
18 | MARKGTTPWHESREMHTQDDADSSLKEQEKTTNKKEQTTAPPEKKLPTIPGKLPKRSVEPPEESRDQKPAGNKPNLKKSPSNPRIPPGGSHPRKKPKVPNRDPSGKHVNSDKKKPSAEAHDKESLSSPPQTDAGKETTKESASTYGASWKSSKPTLKADLKAMEDYITKMPNFHGYICREDAAQILKHPGDWLVRLSVPPSNDQDKKNKAQNLAKSVERTKGHKSTMQKVFVISVLCKGKALSPAKSNNRNLVIKTNNGKFSIDSVHWLVKLKDLFSHYQGTSAVHKNGEFQLLNPISLSKWEFQHEDTELLAKKLGEGAFGEVRVGRLTTKDPKKKLVEVAVKMLKSSADSVTRDQVEELLHETRIMRKLDHPNVLRSYGVAVLREPLYLMIELCSNGALREYLKENHKTITLADKINFVLGSARGVAYLHSQRILHRDLAVRNILLTEDKTPKVSDFGLAELTDRYEMKEHCKIPVRYLAPETLELFIFTPKTDVFSFGCVIWEIYENGQQPHDGKNAQTIRAQVKKREFLKLSSSAPEALRRLVAEKVFVADPENRCSMTSIVQCVETAEKTVK | soluble
19 | MAHHHHHHMHTNTMEVVVKHMGAAFSVAVIPVLKDNYTYIIHDKTTNTMAAVDVSADTTPIVDYVERIRRSIDERGAGAMSFSTIFSTHKHWDHAGGNVVLPKALKAAGAFRIIGGVNDNISGVTQTVREGDRLSLGALQVEVLEAPCHTRGHVLYKVYHPQAEKDGVALFTGDTMFVGGIGAFFEGDAAHMCRALRKVYNLHHNATDKEEADRRTFVFPGHEYTVNFLQFARDTIPPAHPDATFIASQLERYKESVAQRKPTVPSTLAEEKRQNLFLRTCDESFVREMKHGDTAETLMQHLYDTCP | not soluble
20 | MSLSHLVVFDLDGTLTRQRGGFELLHTLYGTTPEAETLMNRFEAGEITFTEWCQGAVDMWRANDITRSDITRATRALKPKAGAVDLLAHLQQTDIRFGILSAGVANLAARFEPYEPAFVRGNWLQFEDRRVSAIDIGVGPNEKGELLRKIRSKQNPVSITYIGDSHTDTEAFIEADTAVLFDPDERVPETAIDAADTIIESADIAEVQNCIPTEGHHHHHH | not soluble
21 | MTHFKGGTMSQFEKYHPILTPHYTFDWLTKVRVIDVFNLYQTSNATATMETTAAQINHTMREIFHDHQLVWGVTARDTNAFVGQVGFAPIDTAKHEATLSVDLTATYQQVTTLREILERLVAFGTVELKLNRLTLILPKHDDLMAQILAGLNFSTTDHLTFNYHQ | not soluble
22 | MNERLKEKLAVLPEQPGCYLMKDKHGTVIYVGKAKSLKERVRSYFTGTHDGKTQRLVEEIADFEYIVTSSNAEALILEMNLIKKHDPKYNVMLKDDKSY | soluble
23 | SKFIAKQSVGAEVIDTPRTEEEAWLLNTVEAQARQWNLKTPEVAIYHSPEPNAFATGASRNSSLIAVSTGLLDHMTRDEVEAVLAHEMAHVGNGDM | not soluble
